In paper PMC12678768:

Molecular target: HTLV-1 CA C-terminal domain, HTLV-1 CACTD (A128-L214) (Human T-cell Leukaemia Virus type 1, subtype C, isolate Aus-GM)
Test: SEC; HTLV-1 CACTD on HiLoad 26/600 Superdex 75 pg, 20 mM HEPES (pH 7.0), 40 mM NaCl; purified as a dimer (Supplementary Fig. 3d)

## HTLV-1 CA C-terminal domain, HTLV-1 CACTD (A128-L214) (domain or fragment)
  stoichiometry N: 2
